± gives the standard deviation of the averaged measurements.
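Also: ATP exposure 15 min at 22 °C before imaging.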

For this series, the system named is ATP. Description: switch fluorescence ratio, 500 uM ATP over buffer (Cy3 cluster intensity, sum of 5 cycles each) (fold (ratio)); higher = stronger signal-on switching upon ATP binding; sequences stand for … in TCGTCGGCAGCGTCAGATGTGTATAAGAGACAGTTTTTTTTTTTTTTTTTTTTTTTTT…TC. The following applies: aptamer strand: ATP DNA aptamer (quencher-CACCTGGGGGAGTATTGCGGAGGAAGG + anchor), 100 nM annealed; ATP concentration: 500 uM. The essentials:
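The fluorescence ratio divides summed target-cycle Cy3 intensity by summed buffer-cycle Cy3 intensity for each cluster and is averaged per switch-domain sequence. Cy3-labelled switching-strand clusters on a modified Illumina MiSeq flow-cell were annealed to 100 nM quencher-labelled ATP aptamer, then imaged in selection buffer and again after 15 min with 500 uM ATP at 22 °C. Five such cycles were run, with NaOH stripping and re-annealing between them, and clusters outside 100-1000 RFU were excluded.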
In the case of CTCTTAGCTA, the switch fluorescence ratio is 1.17 ± 0.019.

For the sequence AATTATAAGA, the switch fluorescence ratio is 0.996 ± 0.027.

In the case of TGTAAAAAGG, the switch fluorescence ratio stood at 0.98 ± 0.025.

For the sequence AAGATTAGTC, the switch fluorescence ratio worked out at 0.974 ± 0.041.

Turning to GCAGTAGGGG, the switch fluorescence ratio was 0.989 ± 0.015.

CGGGGGCTTG: the switch fluorescence ratio was 0.975 ± 0.02.

Consider GCAGTCTGGG, for which the switch fluorescence ratio amounted to 0.991 ± 0.01.

For CAGGAGTAGC, the switch fluorescence ratio was determined as 1.05 ± 0.018.

Regarding CAGGCTTGTA, the switch fluorescence ratio is 1.004 ± 0.0098.

On to GGCGCACTGT, for which the switch fluorescence ratio worked out at 1.02 ± 0.021.

TGACATGGGG: the switch fluorescence ratio was determined as 0.9827 ± 0.0051.

As to CAAAATTGCC, the switch fluorescence ratio was 0.954 ± 0.11.

As to TGGGGGGTGC, the switch fluorescence ratio came out at 1.13 ± 0.4.

Regarding GATATCCAGC, the switch fluorescence ratio worked out at 1.02 ± 0.023.

Regarding GTTGATTTTT, the switch fluorescence ratio turned out to be 0.982 ± 0.018.

Regarding GTAGGGATAG, the switch fluorescence ratio is 1.02 ± 0.057.

On to GGTATAGCAC, for which the switch fluorescence ratio came out at 1.07 ± 0.016.

TGCGATAGAA: the switch fluorescence ratio was 0.994 ± 0.043.

On to TGCGTTAAGG, for which the switch fluorescence ratio was 1 ± 0.031.

As for TTAACGGGGA, the switch fluorescence ratio came to 1.02 ± 0.017.

Consider TTGATTAAAT, for which the switch fluorescence ratio turned out to be 0.9575 ± 0.0089.

On to TTCGGGGATT, for which the switch fluorescence ratio was determined as 1.37 ± 0.58.

Take GAGGGGGCCT: the switch fluorescence ratio turned out to be 0.989 ± 0.049.

Take CTATAGGTCA: the switch fluorescence ratio turned out to be 0.981 ± 0.036.

For TTTTGCCGAG, the switch fluorescence ratio was 0.994 ± 0.011.

Turning to AGTGAGAATC, the switch fluorescence ratio amounted to 1.036 ± 0.0046.

GGGATCAGAA: the switch fluorescence ratio was determined as 0.999 ± 0.074.

For TAATTCGGGG, the switch fluorescence ratio is 0.97 ± 0.057.

In the case of AATTGACTGT, the switch fluorescence ratio is 1.07 ± 0.025.

For the sequence CGGAGTGGTT, the switch fluorescence ratio came out at 1 ± 0.017.

For the sequence TTAGTCATTC, the switch fluorescence ratio worked out at 0.99 ± 0.038.

In the case of TTTTGGTACT, the switch fluorescence ratio was found to be 0.984 ± 0.027.

For ATGGGTTATT, the switch fluorescence ratio came to 0.98 ± 0.045.

As to GATATATAAT, the switch fluorescence ratio came to 1.014 ± 0.002.

With ACAGCTAGTA, the switch fluorescence ratio was 0.986 ± 0.019.

Regarding CTTTTTTCGA, the switch fluorescence ratio stood at 1.04 ± 0.039.

As for AATGGGTTCT, the switch fluorescence ratio came to 0.998 ± 0.079.

On to AAATTTTTGG, for which the switch fluorescence ratio amounted to 1.01 ± 0.045.

Take TTAGGTAACT: the switch fluorescence ratio came to 1.01 ± 0.019.

Consider AGAGTGATGT, for which the switch fluorescence ratio was determined as 1 ± 0.041.

As to GAAAGAGATG, the switch fluorescence ratio was 1.003 ± 0.008.

CTACGGGGTG: the switch fluorescence ratio came out at 1.01 ± 0.046.

On to GAATTGAGGG, for which the switch fluorescence ratio was found to be 0.97 ± 0.054.

CTATTCGGGG: the switch fluorescence ratio was 0.981 ± 0.01.

In the case of TTCCTGTGGG, the switch fluorescence ratio came out at 1.02 ± 0.061.

Consider AAGTTGTTGA, for which the switch fluorescence ratio turned out to be 1 ± 0.028.

Regarding CAAAGAGGAT, the switch fluorescence ratio is 0.991 ± 0.022.

With CCCATGTTTC, the switch fluorescence ratio was 1.02 ± 0.023.

CTGCTTCCCG: the switch fluorescence ratio worked out at 1.15 ± 0.041.

TTGAGTATGG: the switch fluorescence ratio was 0.976 ± 0.028.

As for CATTGCCCGT, the switch fluorescence ratio turned out to be 0.989 ± 0.017.

Take CTTGGGAGGG: the switch fluorescence ratio stood at 0.992 ± 0.029.

Take AATTATCTCG: the switch fluorescence ratio came to 1.01 ± 0.018.

Consider CAATCTGTTA, for which the switch fluorescence ratio was 0.989 ± 0.027.

As for CATGCTAGAG, the switch fluorescence ratio was determined as 0.99 ± 0.025.

For ATAAATGATA, the switch fluorescence ratio stood at 1 ± 0.049.

Take TTGCTGTACT: the switch fluorescence ratio was 1.02 ± 0.021.

On to TGTTGGGGGA, for which the switch fluorescence ratio amounted to 0.979 ± 0.03.

As for TTTTGCCCGA, the switch fluorescence ratio is 0.988 ± 0.029.

Regarding CTCGAGTAGT, the switch fluorescence ratio turned out to be 1.04 ± 0.02.

For the sequence CATTAAGGCT, the switch fluorescence ratio is 1.01 ± 0.071.

Turning to ACCCTTGGGG, the switch fluorescence ratio was 1.02 ± 0.064.

As for AACTCGGTCG, the switch fluorescence ratio was found to be 1.04 ± 0.051.

With AGACGAGACT, the switch fluorescence ratio turned out to be 1.08 ± 0.03.

As for GATCTTTTTG, the switch fluorescence ratio amounted to 1.02 ± 0.014.

As to ATTGCCGTCA, the switch fluorescence ratio is 0.998 ± 0.024.

On to TTCGAGTTTG, for which the switch fluorescence ratio worked out at 0.9843 ± 0.0032.

Turning to TTTTCGTC, the switch fluorescence ratio is 0.978 ± 0.03.

Turning to TTTGTGGTCG, the switch fluorescence ratio turned out to be 1.02 ± 0.031.

For TCCCGGGTCT, the switch fluorescence ratio worked out at 0.992 ± 0.029.

As to TTTCCAAGAA, the switch fluorescence ratio was determined as 1.03 ± 0.025.

CCGCATGCTT: the switch fluorescence ratio was determined as 2.76 ± 2.

In the case of CATAACGCCT, the switch fluorescence ratio came out at 1.09 ± 0.027.

On to ACTCAATTAG, for which the switch fluorescence ratio worked out at 1.025 ± 0.01.

CCTAGTCGGC: the switch fluorescence ratio stood at 1.0715 ± 0.00095.

Regarding GTGCAATGGC, the switch fluorescence ratio came to 1.57 ± 0.18.

Regarding ACGCGGATTG, the switch fluorescence ratio turned out to be 1.002 ± 0.0017.

For GGGGGGAAGC, the switch fluorescence ratio worked out at 1.04 ± 0.064.

With TAGCGGTTTC, the switch fluorescence ratio was 0.9746 ± 0.005.
